The assay in a line: Inactivation of amoxicillin by lipases. The format is biochemical, Bacillus subtilis. To be noted: in 168 h, antibiotic 5.15 μg/, approximately 20° C. Here is the method:
The plates are incubated 18 hours at 37° C.
In this example, the indicator bacterial strains sensitive to beta-lactam antibiotics (e.g. amoxicillin) and macrolide antibiotics were Bacillus subtilis (CIP 52.62) and Micrococcus luteus (CIP 53.45) respectively. All inactivation studies were performed with final antibiotic concentrations of 5.15 μg/. Lipases were used at final concentrations of 2.5 mg/mL (referred as ‘High concentration’) and 0.5 mg/mL (referred as ‘Low concentration’); they were obtained from Codexis.

B1: Lipase from Pseudomonas cepacia P1: Lipase from Pseudomonas cepacia (also called Bulkholderia cepacia) P1, obtained from Codexis (protein, UniProt P22088 45-364, looked up)
Triacylglycerol lipase: AAGYAATRYPIILVHGLSGTDKYAGVLEYWYGIQEDLQQNGATVYVANLSGFQSDDGPNGRGEQLLAYVKTVLAATGATKVNLVGHSQGGLSSRYVAAVAPDLVASVTTIGTPHRGSEFADFVQDVLAYDPTGLSSSVIAAFVNVFGILTSSSHNTNQDALAALQTLTTARAATYNQNYPSAGLGAPGSCQTGAPTETVGGNTHLLYSWAGTAIQPTLSVFGVTGATDTSTLPLVDPANVLDLSTLALFGTGTVMINRGSGQNDGLVSKCSALYGKVLSTSYKWNHLDEINQLLGVRGAYAEDPVAVIRTHANRLKLAGV
With B1, the Amoxicillin inactivation result is given as “+++ in 168 h (100% inactivation = the residual concentration of antibiotic is smaller than the limit of detection of the microbiological test)” (enzyme H (High concentration, 2.5 mg/mL)) and “+++ in 168 h (100% inactivation = the residual concentration of antibiotic is smaller than the limit of detection of the microbiological test)” (enzyme L (Low concentration, 0.5 mg/mL)).

Source of the values: patent US20130236944A1, “METHODS FOR THE INACTIVATION OF ANTIBIOTICS” (priority 2011, published 2013).
